Results published in PMC11335306.

Tests used:
[1] = target: BTV-15-VP5-Δ43-Nhis, seleno-methionyl-derivatised (Bluetongue virus serotype 15); experiment: crystal structure; high pH crystal form: 0.09 M sodium formate, 6.6% PGA-LM, 0.1 M Tris (pH 9.0), 20 °C; space group P1, nine subunits in the asymmetric unit; Se-Met protein
[2] = target: BTV-15-VP5-Δ43-Nhis, unlabelled (Bluetongue virus serotype 15); experiment: crystal structure; low pH crystal form: 1.0 M sodium chloride, 0.1 M Tris (pH 6.0), 20 °C; space group H3; native protein

Row | Substance | stoichiometry N [1] | stoichiometry N [2]
1 | BTV-15-VP5-Δ43-Nhis, seleno-methionyl-derivatised (domain or fragment) | 3 | 
2 | BTV-15-VP5-Δ43-Nhis, unlabelled (domain or fragment) |  | 3
